Measurements taken from the Human Domainome abundance scans (Beltran et al. 2025).
± gives the uncertainty stated by the source.

B1: RAS guanyl-releasing protein 1, residues 539 to 593; numbered along this chain, O95267 (parent)
chain: GFPHNFQETTYLKPTFCDNCAGFLWGVIKQGYRCKDCGMNCHKQCKDLVVFECKK
B2: Zinc finger homeobox protein 4, residues 2562 to 2617; numbered along this chain, Q86UP3 (parent)
chain: RLRTTITPEQLEILYEKYLLDSNPTRKMLDHIAREVGLKKRVVQVWFQNTRARERK

Variants of: B1
Test: abundance fitness (aPCA) (normalised: wild type 0, dead -1); higher = more abundant; growth selection in yeast, the domain comes from the species named
Conditions: Homo sapiens

Variant | abundance fitness
GYPHNFQETTYLKPTFCDNCAGFLWGVIKQGYRCKDCGMNCHKQCKDLVVFECKK | -0.019 ± 0.066
GMPHNFQETTYLKPTFCDNCAGFLWGVIKQGYRCKDCGMNCHKQCKDLVVFECKK | -0.051 ± 0.094
GHPHNFQETTYLKPTFCDNCAGFLWGVIKQGYRCKDCGMNCHKQCKDLVVFECKK | -0.048 ± 0.11
GEPHNFQETTYLKPTFCDNCAGFLWGVIKQGYRCKDCGMNCHKQCKDLVVFECKK | -0.343 ± 0.1
GIPHNFQETTYLKPTFCDNCAGFLWGVIKQGYRCKDCGMNCHKQCKDLVVFECKK | 0.097 ± 0.06
GAPHNFQETTYLKPTFCDNCAGFLWGVIKQGYRCKDCGMNCHKQCKDLVVFECKK | -0.261 ± 0.095
GKPHNFQETTYLKPTFCDNCAGFLWGVIKQGYRCKDCGMNCHKQCKDLVVFECKK | -0.108 ± 0.085
GVPHNFQETTYLKPTFCDNCAGFLWGVIKQGYRCKDCGMNCHKQCKDLVVFECKK | -0.282 ± 0.075
GRPHNFQETTYLKPTFCDNCAGFLWGVIKQGYRCKDCGMNCHKQCKDLVVFECKK | -0.118 ± 0.074
GNPHNFQETTYLKPTFCDNCAGFLWGVIKQGYRCKDCGMNCHKQCKDLVVFECKK | 0.214 ± 0.093
GTPHNFQETTYLKPTFCDNCAGFLWGVIKQGYRCKDCGMNCHKQCKDLVVFECKK | -0.15 ± 0.097
GCPHNFQETTYLKPTFCDNCAGFLWGVIKQGYRCKDCGMNCHKQCKDLVVFECKK | -0.214 ± 0.11
GGPHNFQETTYLKPTFCDNCAGFLWGVIKQGYRCKDCGMNCHKQCKDLVVFECKK | -0.335 ± 0.068
GQPHNFQETTYLKPTFCDNCAGFLWGVIKQGYRCKDCGMNCHKQCKDLVVFECKK | -0.282 ± 0.12
GWPHNFQETTYLKPTFCDNCAGFLWGVIKQGYRCKDCGMNCHKQCKDLVVFECKK | -0.523 ± 0.16
GDPHNFQETTYLKPTFCDNCAGFLWGVIKQGYRCKDCGMNCHKQCKDLVVFECKK | -0.086 ± 0.059
SFPHNFQETTYLKPTFCDNCAGFLWGVIKQGYRCKDCGMNCHKQCKDLVVFECKK | 0.218 ± 0.14
LFPHNFQETTYLKPTFCDNCAGFLWGVIKQGYRCKDCGMNCHKQCKDLVVFECKK | -0.027 ± 0.11
DFPHNFQETTYLKPTFCDNCAGFLWGVIKQGYRCKDCGMNCHKQCKDLVVFECKK | 0.188 ± 0.13
EFPHNFQETTYLKPTFCDNCAGFLWGVIKQGYRCKDCGMNCHKQCKDLVVFECKK | 0.003 ± 0.1
VFPHNFQETTYLKPTFCDNCAGFLWGVIKQGYRCKDCGMNCHKQCKDLVVFECKK | -0.007 ± 0.11
MFPHNFQETTYLKPTFCDNCAGFLWGVIKQGYRCKDCGMNCHKQCKDLVVFECKK | 0.477 ± 0.14
RFPHNFQETTYLKPTFCDNCAGFLWGVIKQGYRCKDCGMNCHKQCKDLVVFECKK | -0.187 ± 0.14
WFPHNFQETTYLKPTFCDNCAGFLWGVIKQGYRCKDCGMNCHKQCKDLVVFECKK | -0.46 ± 0.34
GFAHNFQETTYLKPTFCDNCAGFLWGVIKQGYRCKDCGMNCHKQCKDLVVFECKK | -0.047 ± 0.084
GFCHNFQETTYLKPTFCDNCAGFLWGVIKQGYRCKDCGMNCHKQCKDLVVFECKK | 0.291 ± 0.12

Variants of: B2
Test: as above
Conditions: Homo sapiens

Variant | abundance fitness
RLRTTITPEQLEILYEKYLLDSNPTRKMLDHIAREVGLKKRVVQVWFQNTRAQERK | 0.145 ± 0.1
RLRTTITPEQLEILYEKYLLDSNPTRKMLDHIAREVGLKKRVVQVWFQNTRAIERK | -0.156 ± 0.16
RLRTTITPEQLEILYEKYLLDSNPTRKMLDHIAREVGLKKRVVQVWFQNTRANERK | 0.052 ± 0.13
RLRTTITPEQLEILYEKYLLDSNPTRKMLDHIAREVGLKKRVVQVWFQNTRAWERK | -0.315 ± 0.077
RLRTTITPEQLEILYEKYLLDSNPTRKMLDHIAREVGLKKRVVQVWFQNTRALERK | 0.039 ± 0.064
RLRTTITPEQLEILYEKYLLDSNPTRKMLDHIAREVGLKKRVVQVWFQNTRAYERK | -0.62 ± 0.28
RLRTTITPEQLEILYEKYLLDSNPTRKMLDHIAREVGLKKRVVQVWFQNTRADERK | 0.226 ± 0.14
RLRTTITPEQLEILYEKYLLDSNPTRKMLDHIAREVGLKKRVVQVWFQNTRAGERK | 0.054 ± 0.072
RLRTTITPEQLEILYEKYLLDSNPTRKMLDHIAREVGLKKRVVQVWFQNTRAFERK | 0.066 ± 0.1
RLRTTITPEQLEILYEKYLLDSNPTRKMLDHIAREVGLKKRVVQVWFQNTRAAERK | -0.014 ± 0.07
RLRTTITPEQLEILYEKYLLDSNPTRKMLDHIAREVGLKKRVVQVWFQNTRASERK | 0.168 ± 0.072
RLRTTITPEQLEILYEKYLLDSNPTRKMLDHIAREVGLKKRVVQVWFQNTRAMERK | 0.077 ± 0.079
RLRTTITPEQLEILYEKYLLDSNPTRKMLDHIAREVGLKKRVVQVWFQNTRACERK | 0.045 ± 0.097
RLRTTITPEQLEILYEKYLLDSNPTRKMLDHIAREVGLKKRVVQVWFQNTRATERK | 0.021 ± 0.1
RLRTTITPEQLEILYEKYLLDSNPTRKMLDHIAREVGLKKRVVQVWFQNTRAPERK | -0.373 ± 0.12
RLRTTITPEQLEILYEKYLLDSNPTRKMLDHIAREVGLKKRVVQVWFQNTRAHERK | 0.104 ± 0.081
RLRTTITPEQLEILYEKYLLDSNPTRKMLDHIAREVGLKKRVVQVWFQNTRAEERK | 0.394 ± 0.065
RLRTTITPEQLEILYEKYLLDSNPTRKMLDHIAREVGLKKRVVQVWFQNTRAVERK | -0.03 ± 0.077
RLRTTITPEQLEILYEKYLLDSNPTRKMLDHIAREVGLKKRVVQVWFQNTRAKERK | 0.14 ± 0.1
RLRTTITPEQLEILYEKYLLDSNPTRKMLDHIAREVGLKKRVVQVWFQNTRAREPK | 0.001 ± 0.11
RLRTTITPEQLEILYEKYLLDSNPTRKMLDHIAREVGLKKRVVQVWFQNTRAREGK | 0.11 ± 0.059
RLRTTITPEQLEILYEKYLLDSNPTRKMLDHIAREVGLKKRVVQVWFQNTRAREIK | 0.053 ± 0.1
RLRTTITPEQLEILYEKYLLDSNPTRKMLDHIAREVGLKKRVVQVWFQNTRAREVK | 0.276 ± 0.083

Variant | abundance fitness
RLRTTITPEQLEILYEKYLLDSNPTRKMLDHIAREVGLKKRVVQVWFQNTRAREQK | -0.078 ± 0.26
RLRTTITPEQLEILYEKYLLDSNPTRKMLDHIAREVGLKKRVVQVWFQNTRARELK | 0.128 ± 0.07
RLRTTITPEQLEILYEKYLLDSNPTRKMLDHIAREVGLKKRVVQVWFQNTRARENK | 0.297 ± 0.15
RLRTTITPEQLEILYEKYLLDSNPTRKMLDHIAREVGLKKRVVQVWFQNTRAREDK | 0.262 ± 0.082
RLRTTITPEQLEILYEKYLLDSNPTRKMLDHIAREVGLKKRVVQVWFQNTRAREFK | -0.23 ± 0.15
RLRTTITPEQLEILYEKYLLDSNPTRKMLDHIAREVGLKKRVVQVWFQNTRAREWK | -0.114 ± 0.076
RLRTTITPEQLEILYEKYLLDSNPTRKMLDHIAREVGLKKRVVQVWFQNTRAREKK | -0.035 ± 0.22
RLRTTITPEQLEILYEKYLLDSNPTRKMLDHIAREVGLKKRVVQVWFQNTRAREHK | -0.086 ± 0.16
RLRTTITPEQLEILYEKYLLDSNPTRKMLDHIAREVGLKKRVVQVWFQNTRAREMK | 0.128 ± 0.097
RLRTTITPEQLEILYEKYLLDSNPTRKMLDHIAREVGLKKRVVQVWFQNTRAREYK | 0.05 ± 0.45
RLRTTITPEQLEILYEKYLLDSNPTRKMLDHIAREVGLKKRVVQVWFQNTRARESK | 0.09 ± 0.052
RLRTTITPEQLEILYEKYLLDSNPTRKMLDHIAREVGLKKRVVQVWFQNTRAREAK | 0.107 ± 0.083
RLRTTITPEQLEILYEKYLLDSNPTRKMLDHIAREVGLKKRVVQVWFQNTRARECK | 0.063 ± 0.12
RLRTTITPEQLEILYEKYLLDSNPTRKMLDHIAREVGLKKRVVQVWFQNTRARERM | -0.023 ± 0.3
RLRTTITPEQLEILYEKYLLDSNPTRKMLDHIAREVGLKKRVVQVWFQNTRARERT | 0.267 ± 0.15
RLRTTITPEQLEILYEKYLLDSNPTRKMLDHIAREVGLKKRVVQVWFQNTRARERI | -0.305 ± 0.5
RLRTTITPEQLEILYEKYLLDSNPTRKMLDHIAREVGLKKRVVQVWFQNTRARERV | -0.282 ± 0.37
RLRTTITPEQLEILYEKYLLDSNPTRKMLDHIAREVGLKKRVVQVWFQNTRARERS | -0.043 ± 0.14
RLRTTITPEQLEILYEKYLLDSNPTRKMLDHIAREVGLKKRVVQVWFQNTRARERE | 0.273 ± 0.17
RLRTTITPEQLEILYEKYLLDSNPTRKMLDHIAREVGLKKRVVQVWFQNTRARERG | 0.184 ± 0.34
RLRTTITPEQLEILYEKYLLDSNPTRKMLDHIAREVGLKKRVVQVWFQNTRARERD | 0.085 ± 0.34
RLRTTITPEQLEILYEKYLLDSNPTRKMLDHIAREVGLKKRVVQVWFQNTRARERR | -0.701 ± 0.26
RLRTTITPEQLEILYEKYLLDSNPTRKMLDHIAREVGLKKRVVQVWFQNTRARERA | -0.241 ± 0.46

Variant | abundance fitness
RLRTTITPEQLEILYEKYLLDSNPTRKMLDHIAREVGLKKRVVQVWFQNTRSRERK | -0.197 ± 0.099
RLRTTITPEQLEILYEKYLLDSNPTRKMLDHIAREVGLKKRVVQVWFQNTRVRERK | -0.327 ± 0.05
RLRTTITPEQLEILYEKYLLDSNPTRKMLDHIAREVGLKKRVVQVWFQNTRYRERK | -0.781 ± 0.47
RLRTTITPEQLEILYEKYLLDSNPTRKMLDHIAREVGLKKRVVQVWFQNTRWRERK | -0.347 ± 0.078
RLRTTITPEQLEILYEKYLLDSNPTRKMLDHIAREVGLKKRVVQVWFQNTRTRERK | -0.372 ± 0.08
RLRTTITPEQLEILYEKYLLDSNPTRKMLDHIAREVGLKKRVVQVWFQNTRARSRK | -0.254 ± 0.088
RLRTTITPEQLEILYEKYLLDSNPTRKMLDHIAREVGLKKRVVQVWFQNTRARMRK | -0.09 ± 0.14
RLRTTITPEQLEILYEKYLLDSNPTRKMLDHIAREVGLKKRVVQVWFQNTRARLRK | -0.201 ± 0.056
RLRTTITPEQLEILYEKYLLDSNPTRKMLDHIAREVGLKKRVVQVWFQNTRARWRK | -0.307 ± 0.11
RLRTTITPEQLEILYEKYLLDSNPTRKMLDHIAREVGLKKRVVQVWFQNTRARCRK | -0.811 ± 0.19
RLRTTITPEQLEILYEKYLLDSNPTRKMLDHIAREVGLKKRVVQVWFQNTRARARK | -0.433 ± 0.059
RLRTTITPEQLEILYEKYLLDSNPTRKMLDHIAREVGLKKRVVQVWFQNTRARHRK | -0.672 ± 0.32
RLRTTITPEQLEILYEKYLLDSNPTRKMLDHIAREVGLKKRVVQVWFQNTRARRRK | -0.615 ± 0.11
RLRTTITPEQLEILYEKYLLDSNPTRKMLDHIAREVGLKKRVVQVWFQNTRARPRK | -0.545 ± 0.087
RLRTTITPEQLEILYEKYLLDSNPTRKMLDHIAREVGLKKRVVQVWFQNTRARTRK | -0.737 ± 0.17
RLRTTITPEQLEILYEKYLLDSNPTRKMLDHIAREVGLKKRVVQVWFQNTRARYRK | -0.715 ± 0.29
RLRTTITPEQLEILYEKYLLDSNPTRKMLDHIAREVGLKKRVVQVWFQNTRARIRK | -0.283 ± 0.34
RLRTTITPEQLEILYEKYLLDSNPTRKMLDHIAREVGLKKRVVQVWFQNTRARGRK | -0.362 ± 0.064
RLRTTITPEQLEILYEKYLLDSNPTRKMLDHIAREVGLKKRVVQVWFQNTRARVRK | -0.523 ± 0.063
RLRTTITPEQLEILYEKYLLDSNPTRKMLDHIAREVGLKKRVVQVWFQNTRARKRK | -0.722 ± 0.36
RLRTTITPEQLEILYEKYLLDSNPTRKMLDHIAREVGLKKRVVQVWFQNTRARDRK | -0.122 ± 0.067
RLRTTITPEQLEILYEKYLLDSNPTRKMLDHIAREVGLKKRVVQVWFQNTRARQRK | -0.664 ± 0.25
RLRTTITPEQLEILYEKYLLDSNPTRKMLDHIAREVGLKKRVVQVWFQNTRARFRK | 0.025 ± 0.17
